# In patent US20170052184A1 (published 2017):
# Ends that are not written are not given here.
# T1: C113WT biotin labeled HCV core peptide (hepatitis C virus, also: biotin labeled, position not given here)
# T1 peptide: RGSRPSWGPTD
# T2: Mut1T110N biotin labeled HCV core peptide (hepatitis C virus, biotin labeled)
# T2 peptide: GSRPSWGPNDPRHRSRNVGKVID
# T3: WT1STHV biotin labeled HCV core peptide (hepatitis C virus, biotin labeled)
# T3 peptide: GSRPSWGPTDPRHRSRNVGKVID
# T4: C113T109N biotin labeled HCV core peptide (hepatitis C virus, also: biotin labeled, position not given here)
# T4 peptide: RGSRPSWGPND
# Legend:
# [1] = biological target: T1, C113WT biotin labeled HCV core peptide; experiment: EIA; Ab 1000 ng/mL captured on anti-mouse Fc; bt-peptide 500 ng/mL
# [2] = biological target: T2, Mut1T110N biotin labeled HCV core …; experiment: as above
# [3] = biological target: T3, WT1STHV biotin labeled HCV core peptide; experiment: as above
# [4] = biological target: T4, C113T109N biotin labeled HCV core …; experiment: as above
# [5] = biological target: T5, Mut6T110S biotin labeled HCV core peptide (hepatitis C virus); experiment: as above
# [6] = biological target: T1, C113WT biotin labeled HCV core peptide; experiment: EIA; Ab 500 ng/mL captured on anti-mouse Fc; bt-peptide 500 ng/mL
# [7] = biological target: T2, Mut1T110N biotin labeled HCV core …; experiment: as above
# [8] = biological target: T3, WT1STHV biotin labeled HCV core peptide; experiment: as above
# [9] = biological target: T4, C113T109N biotin labeled HCV core …; experiment: as above
# [10] = biological target: T5, Mut6T110S biotin labeled HCV core …; experiment: as above
# [11] = biological target: T1, C113WT biotin labeled HCV core peptide; experiment: EIA; Ab 15.625 ng/mL captured on anti-mouse Fc; bt-peptide 500 ng/mL
# [12] = biological target: T2, Mut1T110N biotin labeled HCV core …; experiment: as above
# [13] = biological target: T3, WT1STHV biotin labeled HCV core peptide; experiment: as above
# [14] = biological target: T4, C113T109N biotin labeled HCV core …; experiment: as above
# [15] = biological target: T5, Mut6T110S biotin labeled HCV core …; experiment: as above
# [16] = biological target: T1, C113WT biotin labeled HCV core peptide; experiment: EIA; Ab 1.953 ng/mL captured on anti-mouse Fc; bt-peptide 500 ng/mL
# [17] = biological target: T2, Mut1T110N biotin labeled HCV core …; experiment: as above
# [18] = biological target: T3, WT1STHV biotin labeled HCV core peptide; experiment: as above
# [19] = biological target: T4, C113T109N biotin labeled HCV core …; experiment: as above
# [20] = biological target: T5, Mut6T110S biotin labeled HCV core …; experiment: as above
# [21] = biological target: T1, C113WT biotin labeled HCV core peptide; experiment: EIA; Ab 250 ng/mL captured on anti-mouse Fc; bt-peptide 500 ng/mL
# [22] = biological target: T4, C113T109N biotin labeled HCV core …; experiment: as above
# [23] = biological target: T1, C113WT biotin labeled HCV core peptide; experiment: EIA; Ab 0.977 ng/mL captured on anti-mouse Fc; bt-peptide 500 ng/mL
# [24] = biological target: T2, Mut1T110N biotin labeled HCV core …; experiment: as above
# [25] = biological target: T3, WT1STHV biotin labeled HCV core peptide; experiment: as above
# [26] = biological target: T4, C113T109N biotin labeled HCV core …; experiment: as above
# [27] = biological target: T5, Mut6T110S biotin labeled HCV core …; experiment: as above
binder,measurement,setting,value
"HCV Neo4 monoclonal antibody (antibody, V domains shown) VH: QIQLKESGPAVIKPSQSLSLTCIVSGFSITSSVYCWQWIRQPPGKGLEWMGRICYDGSVDYSPSITSRGTISRDTSLNKVFFQLSSVTNEDTAMYYCSRENHIDYYDTTYPSFDVWGAGTTVTVSS VL: DIVLTQSPASLIVSLGQRATISCRASKSVNEYGYTYMHWYQQKPGLPPKLLIYLASNLDSGVPARFSGSGSGTDFTLNIHPVEEEDAATYYCQHSRELPYTFGGGTKLEIKR",signal at 492 nm,[1],0.222 OD 492 nm
same,signal at 492 nm,[2],0.0678 OD 492 nm
same,signal at 492 nm,[3],2 OD 492 nm
same,signal at 492 nm,[4],0.0591 OD 492 nm
same,signal at 492 nm,[5],1.17 OD 492 nm
same,signal at 492 nm,[6],0.0561 OD 492 nm
same,signal at 492 nm,[7],0.065 OD 492 nm
same,signal at 492 nm,[8],1.91 OD 492 nm
same,signal at 492 nm,[9],0.0803 OD 492 nm
same,signal at 492 nm,[10],1.17 OD 492 nm
same,signal at 492 nm,[11],0.0697 OD 492 nm
same,signal at 492 nm,[12],0.0771 OD 492 nm
same,signal at 492 nm,[13],1.42 OD 492 nm
same,signal at 492 nm,[14],0.0736 OD 492 nm
same,signal at 492 nm,[15],0.25 OD 492 nm
same,signal at 492 nm,[16],0.0765 OD 492 nm
same,signal at 492 nm,[17],0.0728 OD 492 nm
same,signal at 492 nm,[18],0.409 OD 492 nm
same,signal at 492 nm,[19],0.0853 OD 492 nm
same,signal at 492 nm,[20],0.0717 OD 492 nm
same,signal at 492 nm,[21],0.0607 OD 492 nm
same,signal at 492 nm,[22],0.111 OD 492 nm
same,signal at 492 nm,[23],0.0584 OD 492 nm
same,signal at 492 nm,[24],0.0619 OD 492 nm
same,signal at 492 nm,[25],0.22 OD 492 nm
same,signal at 492 nm,[26],0.0784 OD 492 nm
same,signal at 492 nm,[27],0.0644 OD 492 nm
